Results as given in patent publication US20150258192A1, “COMPOSITIONS AND METHODS FOR PREVENTING OR TREATING CHRONIC LUNG ALLOGRAFT DYSFUNCTION (CLAD) AND IDIOPATHIC PULMONARY FIBROSIS (IPF)” (priority 2014, published 2015).
No end group written: not given here.

Tests used:
Experiment in all cases: Kinase Profiling Assay
Type in all cases: biochemical
Details in all cases: peptide 100 μM
CaMKI(h) = CaMKI(h) (Homo sapiens, UniProt Q14012)
In short: (§1)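 Specificity of MK2 inhibitory peptides is assessed against a panel of 266 human kinases. Kinase transfers a radiolabeled phosphate from ATP onto a positively charged substrate, which is trapped on a negatively charged filter and quantified by scintillation counting against full-activity control; duplicate determinations.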

DAPK1(h) = DAPK1(h) (Homo sapiens, UniProt P53355)
In short: as §1

DRAK1(h) = molecular target: T1, DRAK1(h) (Homo sapiens, UniProt Q9UEE5)
T1 sequence (Q9UEE5 1-414): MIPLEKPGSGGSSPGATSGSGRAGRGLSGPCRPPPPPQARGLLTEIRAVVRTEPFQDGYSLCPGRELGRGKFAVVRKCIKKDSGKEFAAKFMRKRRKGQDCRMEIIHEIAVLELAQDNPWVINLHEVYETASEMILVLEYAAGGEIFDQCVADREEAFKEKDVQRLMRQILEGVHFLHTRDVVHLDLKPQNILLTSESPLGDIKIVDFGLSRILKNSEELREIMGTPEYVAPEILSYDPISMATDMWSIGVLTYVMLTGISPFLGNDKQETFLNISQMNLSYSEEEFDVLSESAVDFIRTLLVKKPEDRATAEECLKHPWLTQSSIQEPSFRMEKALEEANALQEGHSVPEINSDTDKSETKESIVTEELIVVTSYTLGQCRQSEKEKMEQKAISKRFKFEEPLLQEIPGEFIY
In short: as §1

MKK6(h) = molecular target: T2, MKK6(h) (Homo sapiens, UniProt P52564)
T2 construct: purchased Millipore
T2 sequence (P52564 1-334): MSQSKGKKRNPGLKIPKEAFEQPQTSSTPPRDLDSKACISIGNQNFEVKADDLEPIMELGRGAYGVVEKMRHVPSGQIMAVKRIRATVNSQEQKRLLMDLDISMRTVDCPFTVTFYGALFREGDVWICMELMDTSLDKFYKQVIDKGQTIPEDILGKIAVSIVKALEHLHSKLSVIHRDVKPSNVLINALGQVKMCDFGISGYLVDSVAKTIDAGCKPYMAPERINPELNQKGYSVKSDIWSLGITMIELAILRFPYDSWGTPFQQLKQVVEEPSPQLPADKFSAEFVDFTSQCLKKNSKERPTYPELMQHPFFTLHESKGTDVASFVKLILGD
In short: as §1

MRCKβ(h) = molecular target: T3, MRCKβ(h) (Homo sapiens, UniProt Q9Y5S2)
T3 construct: purchased Millipore
In short: as §1

PDGFRα(V561D)(h) = PDGFRα(V561D)(h) (Homo sapiens, UniProt P16234, V561D)
In short: as §1

PKCα(h) = PKCα(h) (Homo sapiens, UniProt P17252)
In short: as §1

PRAK(h) = molecular target: T4, PRAK(h) (Homo sapiens, UniProt Q8IW41)
T4 sequence (Q8IW41 1-473): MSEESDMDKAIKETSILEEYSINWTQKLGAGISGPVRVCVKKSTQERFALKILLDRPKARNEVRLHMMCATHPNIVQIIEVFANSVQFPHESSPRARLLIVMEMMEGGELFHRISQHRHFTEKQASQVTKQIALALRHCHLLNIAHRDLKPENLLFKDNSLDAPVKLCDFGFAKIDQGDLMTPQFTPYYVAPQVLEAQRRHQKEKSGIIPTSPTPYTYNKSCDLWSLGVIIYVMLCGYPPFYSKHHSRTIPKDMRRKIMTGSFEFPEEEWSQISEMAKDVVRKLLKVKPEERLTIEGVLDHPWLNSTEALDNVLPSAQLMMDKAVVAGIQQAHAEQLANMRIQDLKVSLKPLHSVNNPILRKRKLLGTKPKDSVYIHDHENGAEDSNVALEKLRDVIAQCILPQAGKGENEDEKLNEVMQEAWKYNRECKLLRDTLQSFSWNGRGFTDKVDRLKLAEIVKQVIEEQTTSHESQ
In short: as §1

ZAP-70(h) = molecular target: T5, ZAP-70(h) (Homo sapiens, UniProt P43403)
T5 sequence (P43403 1-619): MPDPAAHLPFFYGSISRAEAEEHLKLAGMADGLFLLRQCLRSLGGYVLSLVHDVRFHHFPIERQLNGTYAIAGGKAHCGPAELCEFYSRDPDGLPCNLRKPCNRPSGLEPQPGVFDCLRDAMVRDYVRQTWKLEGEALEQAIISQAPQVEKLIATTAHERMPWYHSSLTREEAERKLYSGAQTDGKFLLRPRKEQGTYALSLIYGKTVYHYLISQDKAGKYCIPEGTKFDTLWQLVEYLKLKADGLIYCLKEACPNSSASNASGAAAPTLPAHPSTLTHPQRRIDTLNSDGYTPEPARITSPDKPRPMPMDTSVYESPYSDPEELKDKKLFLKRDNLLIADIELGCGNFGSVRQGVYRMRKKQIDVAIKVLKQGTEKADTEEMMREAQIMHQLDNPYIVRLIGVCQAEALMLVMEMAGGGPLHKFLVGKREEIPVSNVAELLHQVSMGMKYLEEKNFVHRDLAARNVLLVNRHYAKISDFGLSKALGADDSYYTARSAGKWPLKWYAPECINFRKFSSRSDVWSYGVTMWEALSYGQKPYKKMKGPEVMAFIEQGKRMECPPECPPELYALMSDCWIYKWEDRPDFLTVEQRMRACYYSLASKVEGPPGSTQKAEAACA
In short: as §1

ZIPK(h) = ZIPK(h) (Homo sapiens, UniProt O43293)
In short: as §1

PDGFRα(V561D)(h), sequence (P16234 24-1089 V561D): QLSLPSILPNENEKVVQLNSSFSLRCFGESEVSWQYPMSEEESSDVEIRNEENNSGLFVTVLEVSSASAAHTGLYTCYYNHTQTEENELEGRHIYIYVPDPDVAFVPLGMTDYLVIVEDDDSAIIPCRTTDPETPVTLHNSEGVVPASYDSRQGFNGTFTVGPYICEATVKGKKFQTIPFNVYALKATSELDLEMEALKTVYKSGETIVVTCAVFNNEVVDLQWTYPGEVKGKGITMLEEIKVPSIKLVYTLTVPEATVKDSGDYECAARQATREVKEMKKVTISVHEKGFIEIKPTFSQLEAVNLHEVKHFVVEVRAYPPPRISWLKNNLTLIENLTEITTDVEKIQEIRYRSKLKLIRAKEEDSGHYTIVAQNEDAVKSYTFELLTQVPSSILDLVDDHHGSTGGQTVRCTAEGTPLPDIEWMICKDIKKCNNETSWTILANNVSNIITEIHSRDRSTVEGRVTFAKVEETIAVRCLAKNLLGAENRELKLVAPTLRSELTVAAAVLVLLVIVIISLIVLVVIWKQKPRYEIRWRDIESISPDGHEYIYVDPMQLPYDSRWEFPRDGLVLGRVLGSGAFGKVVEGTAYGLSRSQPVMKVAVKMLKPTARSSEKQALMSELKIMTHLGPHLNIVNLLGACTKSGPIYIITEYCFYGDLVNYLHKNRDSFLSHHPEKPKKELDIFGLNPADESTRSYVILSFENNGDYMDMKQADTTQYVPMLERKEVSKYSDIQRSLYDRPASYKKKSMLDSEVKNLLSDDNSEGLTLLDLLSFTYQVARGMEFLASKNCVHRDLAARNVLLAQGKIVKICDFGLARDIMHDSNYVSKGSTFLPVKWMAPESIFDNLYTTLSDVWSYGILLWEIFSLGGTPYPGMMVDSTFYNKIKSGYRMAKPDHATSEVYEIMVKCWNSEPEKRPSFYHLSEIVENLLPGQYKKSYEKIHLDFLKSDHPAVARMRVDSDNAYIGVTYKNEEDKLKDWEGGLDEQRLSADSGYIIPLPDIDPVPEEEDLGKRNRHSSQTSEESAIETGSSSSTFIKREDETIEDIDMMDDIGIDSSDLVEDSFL
ZIPK(h), sequence (O43293 whole entry): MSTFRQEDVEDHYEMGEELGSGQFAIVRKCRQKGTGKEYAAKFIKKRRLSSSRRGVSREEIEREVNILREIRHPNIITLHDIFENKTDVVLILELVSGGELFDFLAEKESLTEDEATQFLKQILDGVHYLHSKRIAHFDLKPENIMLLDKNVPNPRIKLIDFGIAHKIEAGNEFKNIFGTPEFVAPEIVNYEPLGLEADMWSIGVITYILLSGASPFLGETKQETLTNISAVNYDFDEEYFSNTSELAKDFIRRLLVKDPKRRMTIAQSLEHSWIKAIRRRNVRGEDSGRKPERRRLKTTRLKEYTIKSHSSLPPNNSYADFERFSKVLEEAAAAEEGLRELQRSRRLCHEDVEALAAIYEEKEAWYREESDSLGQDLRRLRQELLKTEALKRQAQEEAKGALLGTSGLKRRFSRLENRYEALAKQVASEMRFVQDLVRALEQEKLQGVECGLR
DAPK1(h), sequence (P53355 whole entry): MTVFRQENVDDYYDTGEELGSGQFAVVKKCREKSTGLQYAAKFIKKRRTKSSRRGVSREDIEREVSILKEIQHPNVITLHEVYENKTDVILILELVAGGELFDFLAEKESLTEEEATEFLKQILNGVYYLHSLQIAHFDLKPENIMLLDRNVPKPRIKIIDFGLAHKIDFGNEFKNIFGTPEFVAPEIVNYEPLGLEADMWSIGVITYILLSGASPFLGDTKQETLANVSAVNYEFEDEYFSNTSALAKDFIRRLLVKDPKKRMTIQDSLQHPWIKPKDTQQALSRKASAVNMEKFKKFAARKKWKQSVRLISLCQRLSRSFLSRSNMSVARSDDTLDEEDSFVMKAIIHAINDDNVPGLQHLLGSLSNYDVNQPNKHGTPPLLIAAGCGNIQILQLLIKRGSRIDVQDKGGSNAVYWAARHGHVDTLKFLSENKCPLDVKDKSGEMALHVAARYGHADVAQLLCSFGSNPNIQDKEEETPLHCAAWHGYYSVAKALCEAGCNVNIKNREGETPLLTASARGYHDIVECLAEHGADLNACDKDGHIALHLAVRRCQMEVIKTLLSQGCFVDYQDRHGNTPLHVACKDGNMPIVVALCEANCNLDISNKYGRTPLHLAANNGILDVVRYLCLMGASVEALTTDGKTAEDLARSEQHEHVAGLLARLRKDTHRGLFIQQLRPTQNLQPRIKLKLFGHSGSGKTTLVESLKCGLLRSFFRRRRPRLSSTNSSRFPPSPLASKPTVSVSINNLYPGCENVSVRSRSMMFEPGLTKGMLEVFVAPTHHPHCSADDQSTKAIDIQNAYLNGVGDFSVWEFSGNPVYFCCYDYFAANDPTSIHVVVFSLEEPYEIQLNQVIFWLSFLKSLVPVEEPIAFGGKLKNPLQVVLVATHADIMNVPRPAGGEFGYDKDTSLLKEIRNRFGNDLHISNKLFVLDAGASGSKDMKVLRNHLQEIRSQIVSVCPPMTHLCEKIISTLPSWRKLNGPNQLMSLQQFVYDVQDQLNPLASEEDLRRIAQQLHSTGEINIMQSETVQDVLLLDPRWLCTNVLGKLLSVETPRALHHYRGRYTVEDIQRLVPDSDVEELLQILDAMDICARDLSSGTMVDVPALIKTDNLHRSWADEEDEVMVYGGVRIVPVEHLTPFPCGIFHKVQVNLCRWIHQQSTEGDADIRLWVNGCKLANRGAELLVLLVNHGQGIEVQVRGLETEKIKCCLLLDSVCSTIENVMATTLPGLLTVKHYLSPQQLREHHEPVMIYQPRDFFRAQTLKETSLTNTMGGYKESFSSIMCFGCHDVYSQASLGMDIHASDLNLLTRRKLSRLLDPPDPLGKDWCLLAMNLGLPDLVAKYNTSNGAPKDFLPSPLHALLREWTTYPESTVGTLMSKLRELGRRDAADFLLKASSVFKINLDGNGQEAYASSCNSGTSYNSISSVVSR
T3 sequence (Q9Y5S2 whole entry): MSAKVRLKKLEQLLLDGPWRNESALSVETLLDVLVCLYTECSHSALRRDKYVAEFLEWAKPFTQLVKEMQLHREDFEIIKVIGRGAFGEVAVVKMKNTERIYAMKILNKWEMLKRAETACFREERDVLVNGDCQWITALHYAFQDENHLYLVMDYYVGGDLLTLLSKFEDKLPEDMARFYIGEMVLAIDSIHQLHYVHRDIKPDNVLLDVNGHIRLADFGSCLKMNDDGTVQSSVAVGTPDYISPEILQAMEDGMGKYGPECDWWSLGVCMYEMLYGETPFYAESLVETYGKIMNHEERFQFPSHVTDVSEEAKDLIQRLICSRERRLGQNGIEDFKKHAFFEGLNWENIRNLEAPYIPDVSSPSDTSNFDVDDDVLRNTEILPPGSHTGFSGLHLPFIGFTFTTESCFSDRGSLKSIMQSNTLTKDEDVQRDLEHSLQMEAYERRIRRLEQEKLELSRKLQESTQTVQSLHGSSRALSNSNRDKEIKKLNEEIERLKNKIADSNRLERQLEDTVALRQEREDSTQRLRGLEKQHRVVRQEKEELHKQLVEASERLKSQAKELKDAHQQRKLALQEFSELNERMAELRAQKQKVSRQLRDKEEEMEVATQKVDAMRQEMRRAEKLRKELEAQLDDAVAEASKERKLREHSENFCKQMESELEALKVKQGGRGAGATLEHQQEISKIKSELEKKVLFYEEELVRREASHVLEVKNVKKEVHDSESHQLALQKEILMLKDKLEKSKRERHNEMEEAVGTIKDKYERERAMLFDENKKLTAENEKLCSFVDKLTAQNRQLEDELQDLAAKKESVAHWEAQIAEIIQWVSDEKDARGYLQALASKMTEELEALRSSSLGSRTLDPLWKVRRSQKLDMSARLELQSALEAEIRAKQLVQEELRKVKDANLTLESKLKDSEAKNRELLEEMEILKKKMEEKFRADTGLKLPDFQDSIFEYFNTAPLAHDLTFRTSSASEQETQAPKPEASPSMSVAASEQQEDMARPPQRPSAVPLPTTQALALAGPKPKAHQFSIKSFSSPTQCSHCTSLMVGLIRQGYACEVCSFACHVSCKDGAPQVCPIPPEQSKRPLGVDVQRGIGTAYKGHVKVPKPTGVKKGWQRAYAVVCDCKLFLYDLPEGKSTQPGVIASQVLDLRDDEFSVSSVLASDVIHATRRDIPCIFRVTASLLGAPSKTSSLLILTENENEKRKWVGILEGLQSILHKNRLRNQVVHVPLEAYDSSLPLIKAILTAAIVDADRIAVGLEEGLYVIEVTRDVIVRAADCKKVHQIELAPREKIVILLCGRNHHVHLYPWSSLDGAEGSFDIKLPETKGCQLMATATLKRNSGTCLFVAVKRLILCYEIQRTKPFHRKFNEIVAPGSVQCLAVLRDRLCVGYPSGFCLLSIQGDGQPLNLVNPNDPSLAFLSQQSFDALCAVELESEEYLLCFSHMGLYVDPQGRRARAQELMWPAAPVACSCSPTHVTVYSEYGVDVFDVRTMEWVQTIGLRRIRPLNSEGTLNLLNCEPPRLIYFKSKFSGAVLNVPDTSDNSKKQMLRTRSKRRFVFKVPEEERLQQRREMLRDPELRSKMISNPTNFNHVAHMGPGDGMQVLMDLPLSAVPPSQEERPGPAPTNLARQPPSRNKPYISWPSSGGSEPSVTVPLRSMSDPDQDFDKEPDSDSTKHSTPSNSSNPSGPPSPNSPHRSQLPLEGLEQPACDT

Sequence	% activity (CaMKI(h)) [%]	% activity (DAPK1(h)) [%]	% activity (DRAK1(h)) [%]	% activity (MKK6(h)) [%]	% activity (MRCKβ(h)) [%]	% activity (PDGFRα(V561D)(h)) [%]	% activity (PKCα(h)) [%]	% activity (PRAK(h)) [%]	% activity (ZAP-70(h)) [%]	% activity (ZIPK(h)) [%]
HRRIKAWLKKIKALARQLGVAA (Mammal) [MMI-0500]	-1	0	8	18	-10	146	3	95	1	1
YARAAARQARAKALNRQLGVA (Mammal) [MMI-0200]	21		34	98			100		58	67
YARAAARQARAKALARQLGVAA [MMI-0100]		97	47					159	79	
FAKLAARLYRKALARQLGVAA [MMI-0300]	1	46	14	48	83	82	89	128	75	28
KAFAKLAARLYRKALARQLGVAA [MMI-0400]	0	36	14	44	71	100	86	118	33	13
